Experimental data: article PMC3659266 (Structure (London, England : 1993), 2013)

Target: Human full-length eIF4AI (human, UniProt P60842 1-406)
Experiment: ITC

Human full-length eIF4AI, sequence (P60842 whole entry): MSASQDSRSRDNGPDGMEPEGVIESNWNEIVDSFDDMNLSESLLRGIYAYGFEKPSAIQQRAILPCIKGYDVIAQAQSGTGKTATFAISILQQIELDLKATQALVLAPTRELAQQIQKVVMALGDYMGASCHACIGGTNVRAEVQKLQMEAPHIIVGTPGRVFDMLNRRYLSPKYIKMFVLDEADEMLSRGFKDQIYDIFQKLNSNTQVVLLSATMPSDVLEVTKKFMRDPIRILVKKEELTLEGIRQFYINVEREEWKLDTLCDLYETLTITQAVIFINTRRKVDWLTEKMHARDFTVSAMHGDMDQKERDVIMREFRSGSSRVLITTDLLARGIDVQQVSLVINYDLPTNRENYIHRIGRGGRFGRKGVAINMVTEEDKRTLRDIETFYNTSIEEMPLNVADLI

Kd: 136 nM
B1: Middle domain of human eIF4GI (MIF4G, residues 732-1003) (domain or fragment, UniProt Q04637 732-1003, looked up)
chain: KAWKPSSKRTAADKDRGEEDADGSKTQDLFRRVRSILNKLTPQMFQQLMKQVTQLAIDTEERLKGVIDLIFEKAISEPNFSVAYANMCRCLMALKVPTTEKPTVTVNFRKLLLNRCQKEFEKDKDDDEVFEKKQKEMDEAATAEERGRLKEELEEARDIARRRSLGNIKFIGELFKLKMLTEAIMHDCVVKLLKNHDEESLECLCRLLTTIGKDLDFEKAKPRMDQYFNQMEKIIKEKKTSSRIRFMLQDVLDLRGSNWVPRRGDQGPKTID
